Here are results for one substance from PMC8163987.

The target in this assay is cytoplasmic region of YhcB from Haemophilus ducreyi (residues 31 to 128) with I51M and L72M mutations (Haemophilus ducreyi) (UniProt Q7VLF5). Description: crystal structure; microbatch under paraffin oil, 2.0 M ammonium sulfate; SAD phasing of selenomethionine-labeled protein; 2.8 Å.

As for “cytoplasmic region of YhcB from Haemophilus ducreyi (residues 31 to 128) with I51M and L72M mutations (from UniProt Q7VLF5 31-128) (domain or fragment)”, the stoichiometry N (commonly the number of molecules, sites or subunits per partner or assembly) is 4.
